In the supplement of paper PMC10219994:
± gives the standard deviation of the averaged measurements.

B1: library; a variant is named by its letters at N, in order (parent)
chain: GAGACCGCAACTGAAAAGTTGTGGNNNNNATAGTGAGTCGCTGCCTGCAAAGACACAACT

Variants of: B1
Assay: ligation selection enrichment (abundance after / before one-round selection) (fold); higher = more template-directed ligation activity
Conditions: with T7Psub CACGGAUGCUAAUACGACUCACUAUA; MgCl2 25 mM; 42 °C; 4 h; pH 8.5
Summary of the method: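 RNA ligase library with five randomized core positions (0.75 μM, T7-transcribed) was reacted with RNA substrate (6 μM) in 50 mM EPPS pH 8.5, 25 mM MgCl2 at 42 °C for 4 h, in two independent experiments. Ligated products were PAGE-purified, reverse transcribed, barcoded by PCR and MiSeq-sequenced. Reads with quality score ≥30 at all randomized positions were counted. Enrichment was abundance after ligation divided by abundance before ligation.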

For GAGACCGCAACTGAAAAGTTGTGGTCTGTATAGTGAGTCGCTGCCTGCAAAGACACAACT [TCTGT], which ligation selection enrichment is on record?
The ligation selection enrichment was 0.0815 ± 0.058.

Which ligation selection enrichment does the source give for GAGACCGCAACTGAAAAGTTGTGGGCTGTATAGTGAGTCGCTGCCTGCAAAGACACAACT [GCTGT] here?
The ligation selection enrichment was 0.15 ± 0.068.

For GAGACCGCAACTGAAAAGTTGTGGCCTGTATAGTGAGTCGCTGCCTGCAAAGACACAACT [CCTGT], which ligation selection enrichment is on record?
The ligation selection enrichment was 0.138 ± 0.07.

For GAGACCGCAACTGAAAAGTTGTGGACTGTATAGTGAGTCGCTGCCTGCAAAGACACAACT [ACTGT], which ligation selection enrichment is on record?
The ligation selection enrichment was 0.13 ± 0.074.

How did the ligation selection enrichment turn out when GAGACCGCAACTGAAAAGTTGTGGGCTTAATAGTGAGTCGCTGCCTGCAAAGACACAACT [GCTTA] was run?
The ligation selection enrichment was 0.21 ± 0.0056.

Which ligation selection enrichment does the source give for GAGACCGCAACTGAAAAGTTGTGGACTTAATAGTGAGTCGCTGCCTGCAAAGACACAACT [ACTTA] here?
The ligation selection enrichment was 0.172 ± 0.0078.

Which ligation selection enrichment does the source give for GAGACCGCAACTGAAAAGTTGTGGCCTTAATAGTGAGTCGCTGCCTGCAAAGACACAACT [CCTTA] here?
Its ligation selection enrichment is 0.159 ± 0.004.

With GAGACCGCAACTGAAAAGTTGTGGTCTTAATAGTGAGTCGCTGCCTGCAAAGACACAACT [TCTTA] as the variant, how does the ligation selection enrichment read?
Its ligation selection enrichment is 0.122 ± 0.024.

Which ligation selection enrichment does the source give for GAGACCGCAACTGAAAAGTTGTGGTCTTCATAGTGAGTCGCTGCCTGCAAAGACACAACT [TCTTC] here?
The ligation selection enrichment was 0.0955 ± 0.034.

How did the ligation selection enrichment turn out when GAGACCGCAACTGAAAAGTTGTGGACTTCATAGTGAGTCGCTGCCTGCAAAGACACAACT [ACTTC] was run?
The ligation selection enrichment was 0.192 ± 0.049.

Which ligation selection enrichment does the source give for GAGACCGCAACTGAAAAGTTGTGGGCTTCATAGTGAGTCGCTGCCTGCAAAGACACAACT [GCTTC] here?
Its ligation selection enrichment is 0.176 ± 0.038.

How did the ligation selection enrichment turn out when GAGACCGCAACTGAAAAGTTGTGGCCTTCATAGTGAGTCGCTGCCTGCAAAGACACAACT [CCTTC] was run?
Its ligation selection enrichment is 0.171 ± 0.02.

With GAGACCGCAACTGAAAAGTTGTGGGCTTGATAGTGAGTCGCTGCCTGCAAAGACACAACT [GCTTG] as the variant, how does the ligation selection enrichment read?
Its ligation selection enrichment is 0.955 ± 0.16.

For GAGACCGCAACTGAAAAGTTGTGGACTTGATAGTGAGTCGCTGCCTGCAAAGACACAACT [ACTTG], which ligation selection enrichment is on record?
Its ligation selection enrichment is 0.918 ± 0.18.

How did the ligation selection enrichment turn out when GAGACCGCAACTGAAAAGTTGTGGCCTTGATAGTGAGTCGCTGCCTGCAAAGACACAACT [CCTTG] was run?
The ligation selection enrichment was 0.874 ± 0.15.

With GAGACCGCAACTGAAAAGTTGTGGTCTTGATAGTGAGTCGCTGCCTGCAAAGACACAACT [TCTTG] as the variant, how does the ligation selection enrichment read?
Its ligation selection enrichment is 0.678 ± 0.067.

GAGACCGCAACTGAAAAGTTGTGGGCTTTATAGTGAGTCGCTGCCTGCAAAGACACAACT [GCTTT] was tested. Which ligation selection enrichment did it give?
The ligation selection enrichment was 0.4952 ± 0.0042.

How did the ligation selection enrichment turn out when GAGACCGCAACTGAAAAGTTGTGGACTTTATAGTGAGTCGCTGCCTGCAAAGACACAACT [ACTTT] was run?
Its ligation selection enrichment is 0.465 ± 0.065.

With GAGACCGCAACTGAAAAGTTGTGGCCTTTATAGTGAGTCGCTGCCTGCAAAGACACAACT [CCTTT] as the variant, how does the ligation selection enrichment read?
Its ligation selection enrichment is 0.455 ± 0.12.

With GAGACCGCAACTGAAAAGTTGTGGTCTTTATAGTGAGTCGCTGCCTGCAAAGACACAACT [TCTTT] as the variant, how does the ligation selection enrichment read?
The ligation selection enrichment was 0.193 ± 0.18.

With GAGACCGCAACTGAAAAGTTGTGGTGAAAATAGTGAGTCGCTGCCTGCAAAGACACAACT [TGAAA] as the variant, how does the ligation selection enrichment read?
The ligation selection enrichment was 0.326 ± 0.022.

GAGACCGCAACTGAAAAGTTGTGGCGAAAATAGTGAGTCGCTGCCTGCAAAGACACAACT [CGAAA] was tested. Which ligation selection enrichment did it give?
Its ligation selection enrichment is 0.31 ± 0.015.

How did the ligation selection enrichment turn out when GAGACCGCAACTGAAAAGTTGTGGAGAAAATAGTGAGTCGCTGCCTGCAAAGACACAACT [AGAAA] was run?
Its ligation selection enrichment is 0.306 ± 0.043.

With GAGACCGCAACTGAAAAGTTGTGGGGAAAATAGTGAGTCGCTGCCTGCAAAGACACAACT [GGAAA] as the variant, how does the ligation selection enrichment read?
Its ligation selection enrichment is 0.282 ± 0.011.

How did the ligation selection enrichment turn out when GAGACCGCAACTGAAAAGTTGTGGAGAACATAGTGAGTCGCTGCCTGCAAAGACACAACT [AGAAC] was run?
The ligation selection enrichment was 0.267 ± 0.06.

GAGACCGCAACTGAAAAGTTGTGGTGAACATAGTGAGTCGCTGCCTGCAAAGACACAACT [TGAAC] was tested. Which ligation selection enrichment did it give?
Its ligation selection enrichment is 0.25 ± 0.0069.

How did the ligation selection enrichment turn out when GAGACCGCAACTGAAAAGTTGTGGCGAACATAGTGAGTCGCTGCCTGCAAAGACACAACT [CGAAC] was run?
The ligation selection enrichment was 0.246 ± 0.0029.

For GAGACCGCAACTGAAAAGTTGTGGGGAACATAGTGAGTCGCTGCCTGCAAAGACACAACT [GGAAC], which ligation selection enrichment is on record?
The ligation selection enrichment was 0.226 ± 0.0027.

How did the ligation selection enrichment turn out when GAGACCGCAACTGAAAAGTTGTGGCGAAGATAGTGAGTCGCTGCCTGCAAAGACACAACT [CGAAG] was run?
The ligation selection enrichment was 0.4199 ± 0.0032.

GAGACCGCAACTGAAAAGTTGTGGAGAAGATAGTGAGTCGCTGCCTGCAAAGACACAACT [AGAAG] was tested. Which ligation selection enrichment did it give?
Its ligation selection enrichment is 0.4 ± 0.033.

With GAGACCGCAACTGAAAAGTTGTGGGGAAGATAGTGAGTCGCTGCCTGCAAAGACACAACT [GGAAG] as the variant, how does the ligation selection enrichment read?
The ligation selection enrichment was 0.341 ± 0.011.

How did the ligation selection enrichment turn out when GAGACCGCAACTGAAAAGTTGTGGTGAAGATAGTGAGTCGCTGCCTGCAAAGACACAACT [TGAAG] was run?
Its ligation selection enrichment is 0.271 ± 0.03.

For GAGACCGCAACTGAAAAGTTGTGGAGAATATAGTGAGTCGCTGCCTGCAAAGACACAACT [AGAAT], which ligation selection enrichment is on record?
Its ligation selection enrichment is 3.78 ± 0.51.

Which ligation selection enrichment does the source give for GAGACCGCAACTGAAAAGTTGTGGTGAATATAGTGAGTCGCTGCCTGCAAAGACACAACT [TGAAT] here?
Its ligation selection enrichment is 3.36 ± 0.95.

For GAGACCGCAACTGAAAAGTTGTGGGGAATATAGTGAGTCGCTGCCTGCAAAGACACAACT [GGAAT], which ligation selection enrichment is on record?
Its ligation selection enrichment is 2.23 ± 0.17.

GAGACCGCAACTGAAAAGTTGTGGCGAATATAGTGAGTCGCTGCCTGCAAAGACACAACT [CGAAT] was tested. Which ligation selection enrichment did it give?
The ligation selection enrichment was 2.11 ± 0.22.

For GAGACCGCAACTGAAAAGTTGTGGCGACAATAGTGAGTCGCTGCCTGCAAAGACACAACT [CGACA], which ligation selection enrichment is on record?
Its ligation selection enrichment is 0.411 ± 0.093.

How did the ligation selection enrichment turn out when GAGACCGCAACTGAAAAGTTGTGGGGACAATAGTGAGTCGCTGCCTGCAAAGACACAACT [GGACA] was run?
Its ligation selection enrichment is 0.256 ± 0.046.

For GAGACCGCAACTGAAAAGTTGTGGAGACAATAGTGAGTCGCTGCCTGCAAAGACACAACT [AGACA], which ligation selection enrichment is on record?
The ligation selection enrichment was 0.206 ± 0.011.

Which ligation selection enrichment does the source give for GAGACCGCAACTGAAAAGTTGTGGTGACAATAGTGAGTCGCTGCCTGCAAAGACACAACT [TGACA] here?
The ligation selection enrichment was 0.19 ± 0.052.

For GAGACCGCAACTGAAAAGTTGTGGCGACCATAGTGAGTCGCTGCCTGCAAAGACACAACT [CGACC], which ligation selection enrichment is on record?
Its ligation selection enrichment is 0.239 ± 0.071.

With GAGACCGCAACTGAAAAGTTGTGGGGACCATAGTGAGTCGCTGCCTGCAAAGACACAACT [GGACC] as the variant, how does the ligation selection enrichment read?
Its ligation selection enrichment is 0.232 ± 0.06.

With GAGACCGCAACTGAAAAGTTGTGGTGACCATAGTGAGTCGCTGCCTGCAAAGACACAACT [TGACC] as the variant, how does the ligation selection enrichment read?
Its ligation selection enrichment is 0.183 ± 0.0057.

For GAGACCGCAACTGAAAAGTTGTGGAGACCATAGTGAGTCGCTGCCTGCAAAGACACAACT [AGACC], which ligation selection enrichment is on record?
The ligation selection enrichment was 0.172 ± 0.011.

Which ligation selection enrichment does the source give for GAGACCGCAACTGAAAAGTTGTGGGGACGATAGTGAGTCGCTGCCTGCAAAGACACAACT [GGACG] here?
The ligation selection enrichment was 0.725 ± 0.049.
